Source: patent US20260248877A1 (Universite de Rennes, priority 2021, published 2026)
“And” between values parts separate entries of the source, which are not always exact repeats. Equal entries are not always repeated. “Also recorded” adds a separate entry of the source.

Experiments:
[1] = test system: cells of the neuroblastoma line SH-SY5Y; assay: Growth of SH-SY5Y neuroblastoma cells (images); type: cell-based; conditions: 100 μM, 24 hours, 1×DMEM medium, 8% serum
Description: The effects of three hexapeptides classified as “therapeutic” (1tp, 4tp, 6tp) and of two peptides classified as “amyloid” (7tp and 1p) on the growth of cells of the neuroblastoma line SH-SY5Y were studied after 24 hours of treatment in the presence of a hexapeptide at a concentration of 100 μM in 1×DMEM medium, 8% serum. The results obtained are presented on FIG. 10(A).

[2] = Determination of the aggregative character of the peptides by sedimentation; type: physicochemical; conditions: for % sedimentation: 800 μM peptide, sedimentable peptide after polymerization as percentage of total concentration (16p and 9tp: 288 μM per FIG. 3 legend); for aggregative character (in words): sedimentation, Garnier-Delamarche representation
Description: (§1) After thawing, a pre-dilution in milli Q H2O filtered through 0.2 μm was carried out in order to obtain a solution at a concentration close to the working concentration, greater than 1.25 times. This stock solution was left to incubate for 1 hour in a water bath at 25° C., and was then assayed spectrophotometrically and adjusted to the final working concentration of 1.25 times. The polymerization was initiated by adding ¼ of the volume of 5× fibrillation buffer (50 mM MOPS, 750 mM NaCl, pH=7.2) for a final concentration of 1× fibrillation buffer (10 mM MOPS, 150 mM NaCl, PH=7.2). The samples were left to incubate for 1.5-2 hours at 25° C. in a water bath. The study of the polymerization by fluorimetry was carried out under the same conditions, except that the 5× polymerization buffer was supplemented with Thioflavin T (ThT) at 100 μM in order to be able to observe the fluorescence. • (a) Determination of the Aggregative Character of the Peptides. Once polymerized, the samples were ultracentrifuged at 100,000 g for 5 minutes at 25° C. (Beckman TL100, rotor TL-A100). The supernatants of each sample were then collected. An assay at 280 nm in triplicate of each supernatant was then carried out in the presence of 1% SDS. The concentration of the supernatant was determined using the Beer-Lambert law A=ε×1×C; ε (peptides)=1450 M^−1cm^−1. The concentration of sedimentable species in the pellet was then deduced by the difference: “total concentration of the sample—concentration of free peptide present in the supernatant”. • (b) Determination of the Amyloidogenic Character of the Peptides. Once the peptides have polymerized as previously indicated, 40 μL of peptides polymerized at a concentration of 400 μM and 800 μM were diluted in 360 μL of Thioflavin T (10 μM ThT, 1×MOPS) in a thermostatically controlled tank of 0.2×1 cm, to a final volume of 400 μL. The fluorescence of the sample was then measured immediately after dilution by recording a fluorescence spectrum (470 nm to 600 nm) at an excitation wavelength of 450 nm (Perkin Elmer LS 55, PM 750, slit10).
(§2) After prediction of their amyloidogenic character by bioinformatics, all the peptides were studied using biochemical techniques, namely sedimentation and fluorescence/ThT. The biochemical experiments were carried out at two peptide concentrations: 400 μM and 800 μM. Only the results obtained at 800 μM are presented. At this concentration, in sedimentation, the amount of sedimentable peptide after polymerization was measured and expressed as a percentage as a function of the total concentration. This value corresponds to the aggregative character of the peptides. On the other hand, the fluorescence test was used to determine their amyloidogenic character, the fluorescence value given corresponds to a normalization with respect to 1p, considering that its fluorescence is 100% (Table 4).

[3] = Determination of the amyloidogenic character of the peptides by Thioflavin T fluorescence; type: physicochemical; conditions: for % fluorescence: 800 μM peptide, ThT fluorescence normalized to 1p = 100% (16p and 9tp: 288 μM per FIG. 3 legend); for amyloidogenic character (in words): ThT fluorescence, Garnier-Delamarche representation
Description: as §1, §2

[4] = biological target: T1, PHF6 peptide (VQIVYK, 1p) (Homo sapiens, UniProt P10636); assay: Effects of the derived peptides on VQIVYK polymerization by spectrofluorimetry (ThT kinetics); type: biochemical; conditions: [1p]=155 μM, [selected peptide]=310 μM; for fluorescence intensity (plateau / at 100 minutes) of 1p in the presence of peptide, % of 1p alone / maximum polymerization rate of 1p in the presence of peptide, % of 1p alone: [ThT]=32 μM; for inhibitory effect on 1p (PHF6) polymerization (in words): thresholds 50% rate, 100% fluorescence intensity
T1 construct: The polymerization of VQIVYK was initiated by adding ¼ of the volume of fibrillation buffer 5×

[5] = Solubility of peptides in aqueous medium; type: physicochemical; conditions: could not be tested at 800 μM
Description: The PHIF6 peptide (Ac-VQIVYK-NH2) as well as the derived hexapeptides were produced by Proteogenix® in an N-acetylated and C-amidated form and supplied in a lyophilized form. They are acetylated and amidated in order to better mimic the original protein. They were resuspended in milli Q water and filtered through 0.2 μm to obtain a concentration close to 5 mg/mL. After being vortexed for 15 minutes, the peptide solution was sonicated for 15 minutes at 35° C. in a sonicator water bath (Advantage-Lab AL04-04) then ultracentrifuged (Beckman TL100) at 100,000 g for 10 minutes at 20° C. The pellet containing the residual aggregates was discarded. The concentration of the supernatant was determined by measuring UV absorption at 280 nm using a molar extinction coefficient of 1450 M^−1cm^−1 in 1% SDS.

Substance	% sedimentation [2]	% fluorescence [3]	aggregative character (in words) [2]	amyloidogenic character (in words) [3]	further results
Ac-IQVVYK-NH2 [7tp, IQVVYK]					effect on cell growth (number and appearance of cells) [1]: the number of cells seemed to strongly decrease
VVIKYQ (Ac-VVIKYQ-NH2) [3tp]	48%	0.9%			
VQKIYV (Ac-VQKIYV-NH2) [4p]	1%	0.8%	weakly aggregative	weakly amyloidogenic	category of polymerization kinetics of 1p in the presence of peptide [4]: generally follow the kinetics of 1p alone; fluorescence intensity (plateau / at 100 minutes) of 1p in the presence of peptide, % of 1p alone [4]: 80%; maximum polymerization rate of 1p in the presence of peptide, % of 1p alone [4]: 50%; inhibitory effect on 1p (PHF6) polymerization (in words) [4]: inhibits the polymerization of 1p; also recorded: marked inhibitory effect; also recorded: with a weak inhibitory effect
IQYVVK (Ac-IQYVVK-NH2) [8tp]	78%	17.5%			
KQIVYV (Ac-KQIVYV-NH2) [20p]	75%	1.3%			
QKVVYI (Ac-QKVVYI-NH2) [18p]	51%	6.8%			
KVQYVI (Ac-KVQYVI-NH2) [14p]	1%	4.4%	weakly aggregative	weakly amyloidogenic	category of polymerization kinetics of 1p in the presence of peptide [4]: generally follow the kinetics of 1p alone; inhibitory effect on 1p (PHF6) polymerization (in words) [4]: without any inhibitory effect
KYVIQV (Ac-KYVIQV-NH2) [15p]	71%	3.9%			
Ac-VKIQYV-NH2 [4tp, VKIQYV]					effect on cell growth (number and appearance of cells) [1]: did not seem to have any effect
VQVIYK (Ac-VQVIYK-NH2) [12p]	14%	82% and 81.6%			
VQYVIK (Ac-VQYVIK-NH2) [5tp]	26%	71.7%	aggregative	amyloidogenic	
VQVKYI (Ac-VQVKYI-NH2) [21p]	33%	19.9%	poorly aggregative	amyloidogenic	
Ac-YQVVIK-NH2 [9tp, YQVVIK]					solubility in aqueous medium [5]: low solubility
VVQKYI (Ac-VVQKYI-NH2) [6p]	14%	0.2%	weakly aggregative; also recorded: more aggregative than the 10 selected hexapeptides	weakly amyloidogenic; also recorded: very poorly amyloidogenic	
IKQVYV (Ac-IKQVYV-NH2) [5p]	5%	1.1%	weakly aggregative	weakly amyloidogenic	category of polymerization kinetics of 1p in the presence of peptide [4]: generally follow the kinetics of 1p alone; inhibitory effect on 1p (PHF6) polymerization (in words) [4]: marked inhibitory effect; also recorded: with a weak inhibitory effect
VQVYKI (Ac-VQVYKI-NH2) [22p]	34%	3%			

Substance	% sedimentation [2]	% fluorescence [3]	aggregative character (in words) [2]	amyloidogenic character (in words) [3]	further results
YQVIVK (Ac-YQVIVK-NH2) [17p]	95%	2.3%			
VQIKYV (Ac-VQIKYV-NH2) [0tp]	0%	10.7%			
Ac-VQIVYK-NH2 [1p, Ac-VQIVYK-NH2, reference compound]			self-aggregative	strong amyloidogenic	effect on cell growth (number and appearance of cells) [1]: the number of cells seemed to strongly decrease
KYIQVV (Ac-KYIQVV-NH2) [2p]	67%	2.8%			
VKYQVI (Ac-VKYQVI-NH2) [3p]	18%	0.2%	more aggregative than the 10 selected hexapeptides	very poorly amyloidogenic	
KVQIVY (Ac-KVQIVY-NH2) [10p]	63%	3.2%			
Ac-YQVKIV-NH2 [16p, YQVKIV]					solubility in aqueous medium [5]: low solubility
Ac-VKIVYQ-NH2 [1tp, VKIVYQ]					effect on cell growth (number and appearance of cells) [1]: did not seem to have any effect; fluorescence intensity (plateau / at 100 minutes) of 1p in the presence of peptide, % of 1p alone [4]: 23.5%; maximum polymerization rate of 1p in the presence of peptide, % of 1p alone [4]: 12%
IYVQKV (Ac-IYVQKV-NH2) [9p]	1%	2.1%	weakly aggregative	weakly amyloidogenic	category of polymerization kinetics of 1p in the presence of peptide [4]: generally follow the kinetics of 1p alone; inhibitory effect on 1p (PHF6) polymerization (in words) [4]: without any inhibitory effect
VKVIYQ (Ac-VKVIYQ-NH2) [7p]	86%	1.3%			
YIVVQK (Ac-YIVVQK-NH2) [13p]	0%	2.7%	weakly aggregative	weakly amyloidogenic	category of polymerization kinetics of 1p in the presence of peptide [4]: generally follow the kinetics of 1p alone; inhibitory effect on 1p (PHF6) polymerization (in words) [4]: without any inhibitory effect
QVIKYV (Ac-QVIKYV-NH2) [23p]	5%	0.8%	weakly aggregative	weakly amyloidogenic	category of polymerization kinetics of 1p in the presence of peptide [4]: very high rate and intensity of fluorescence; fluorescence intensity (plateau / at 100 minutes) of 1p in the presence of peptide, % of 1p alone [4]: 161.7%; maximum polymerization rate of 1p in the presence of peptide, % of 1p alone [4]: 65%; inhibitory effect on 1p (PHF6) polymerization (in words) [4]: non-inhibitory peptide; also recorded: without any inhibitory effect
QKVYIV (Ac-QKVYIV-NH2) [19p]	76%	0.8%	vice versa	vice versa	
VKVYIQ (Ac-VKVYIQ-NH2) [11p]	6%	25%			
QKYIVV (Ac-QKYIVV-NH2) [8p]	0%	1.9%			category of polymerization kinetics of 1p in the presence of peptide [4]: very high rate and intensity of fluorescence; inhibitory effect on 1p (PHF6) polymerization (in words) [4]: without any inhibitory effect
VVIQYK (Ac-VVIQYK-NH2) [2tp]	58%	2.9%			
